The values below are quoted from earlier work in paper PMC2943937.

As usually defined, the Kd is the constant that tells how readily two partners part at equilibrium.

In the series the target is CAR (Mus musculus) (UniProt P97792).
UniProt P97792, sequence (P97792 20-237): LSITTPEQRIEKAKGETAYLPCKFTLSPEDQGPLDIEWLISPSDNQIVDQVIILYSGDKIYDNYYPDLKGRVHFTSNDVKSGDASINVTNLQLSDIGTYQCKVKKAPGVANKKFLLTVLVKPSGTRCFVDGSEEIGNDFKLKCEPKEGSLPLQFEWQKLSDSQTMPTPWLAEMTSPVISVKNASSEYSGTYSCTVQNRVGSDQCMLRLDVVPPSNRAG

In the case of JAML (from UniProt Q80UL9), the equilibrium dissociation constant (Kd) was 5 µM.
